How the values were obtained:
[1] = target: RNA polymerase II holoenzyme (yeast)
[2] = target: mammalian RNA polymerase II holoenzyme (calf thymus)
[3] = target: RNA polymerase II (calf thymus) (bovine (calf thymus)); test: cofractionation during purification from calf thymus, Western blot

| percent of the RNA polymerase II associated with SRB7 [3] | Substance | in vitro transcription from a template with a GAL4 site, reconstituted with holoenzyme, factor a and TBP [1] | in vitro transcription from the adenovirus major late promoter with 3 Gal4 binding sites, with coactivators HMG-2 or PC4 [2] |
| --- | --- | --- | --- |
| – | GAL4-VP16 (from UniProt P04386) | 5 fold | 5 fold |
| > 20% | bovine SRB7 (from UniProt Q2TBU8) | – | – |
